One block for each binder: values may come before it.
Assays:
人全长重组tau(2N4R) [1] = molecular target: T1, 人全长重组tau(2N4R) (human, UniProt P10636 2-758); experiment: SPR, Biacore T200, 25 °C, mAb captured by anti-Fc on a CM4 chip, tau as analyte, 1:1 Langmuir fit
T1 construct: also called human full-length recombinant tau; 全长重组Tau蛋白

人全长重组tau(2N4R) [2] = molecular target: T1, 人全长重组tau(2N4R); experiment: SPR, single-cycle kinetics

T1 sequence (P10636 other isoform, or with tags, fused parts or gaps limits assumed): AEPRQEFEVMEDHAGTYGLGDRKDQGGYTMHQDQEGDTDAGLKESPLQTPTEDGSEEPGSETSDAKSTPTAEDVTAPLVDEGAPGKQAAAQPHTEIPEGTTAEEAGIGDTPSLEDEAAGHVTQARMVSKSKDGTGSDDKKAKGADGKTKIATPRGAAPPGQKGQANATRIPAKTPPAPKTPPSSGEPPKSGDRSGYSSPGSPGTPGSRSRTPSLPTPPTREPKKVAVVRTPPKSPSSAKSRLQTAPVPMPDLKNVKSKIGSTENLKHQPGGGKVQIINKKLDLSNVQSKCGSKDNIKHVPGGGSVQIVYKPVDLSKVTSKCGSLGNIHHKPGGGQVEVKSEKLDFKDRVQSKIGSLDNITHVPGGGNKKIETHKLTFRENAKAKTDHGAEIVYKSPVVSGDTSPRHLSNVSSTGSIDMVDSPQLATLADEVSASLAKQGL

binding result (人全长重组tau(2N4R) [1]): binds
B1: PT1B545 (antibody, mouse IgG2a, kappa, V domains shown)
VH: QVQLQQPGAELVKPGASVKMSCKASGYTFTSYWITWVKQRPGQGLEWIGDIHPGRGSTKSNEKFKSKATLTVDTSSSTAYMQFSSLTSEDSAVYYCARRWGFDYWGQGTTLTVSS
VL: DIVITQDELSNPVTSGESVSISCRSSKSLLYKDGKTYLNWFLQRPGQSPQLLIYLMSTRASGVSDRFSGSGSGTDFTLEISRVKAEDVGVYYCQQLVDYPLTFGAGTKLELKR
notes: Parental mouse mAb; also called PT/66; 亲本mAb PT/66

binding result (人全长重组tau(2N4R) [2]): binds
B2: PT1B1183 (antibody, human IgG1, kappa, V domains shown)
VH: QVQLVQSGAEVKKPGASVKVSCKASGYTFTSYWITWVRQRPGQGLEWMGDIHPGRGSTKYAQKLQGRVTMTTDTSTSTAYMELRSLRSDDTAVYYCARRWGFDYWGQGTLVTVSS
VL: DIVMTQTPLSSPVTLGQPASISCRSSKSLLYKDGKTYLNWFQQRPGQSPRLLIYLMSTRASGVPDRFSGSGAGTDFTLKISRVEAEDVGVYYCQQLVDYPLTFGQGTKLEIKR
notes: Humanised antibody obtained from PT1B1153 by modifying framework region 2 of the light chain

Source: patent publication CN117083298A (CENTOCOR ORTHO BIOTECH INC, dated 2023)
